The values below come from US11447574B2.

For this test, the target named is human IL-17A (human) (UniProt Q16552).

Substance “AIN457 (anti-IL-17A antibody by Novartis)” registered an IC50, picomole, as defined by the cell IL6 test of 1100 picomole.
